From patent US20120253017A1 (published 2012)
Where a chain is given by its changes, count along the chain named.

B1: DMS5056 (chimeric MLC mAb-cKIT dAb, DOM28m-107) (bispecific antibody)
heavy: not shown
light: DIVMSQSPSSLAVSAGDKVTMSCKSSQSLLYSRTRKNYLAWYQQKPGQSPKLLIYWASTRQSGVPDRFTGSGSGTDFTLTISSVQAEDLAVYYCKQSYNLFTFGSGTKLEIKRTVAAPSVFIFPPSDEQLKSGTASVVCLLNNFYPREAKVQWKVDNALQSGNSQESVTEQDSKDSTYSLSSTLTLSKADYEKHKVYACEVTHQGLSSPVTKSFNRGEC
B2: DMS5058 (chimeric MLC mAb-cKIT dAb, DOM28m-112) (bispecific antibody)
heavy: not shown
light: B1 light
B3: DMS5052 (chimeric MLC mAb-cKIT dAb, DOM28m-007) (bispecific antibody)
heavy (part 1 of 2): QVQLQQSGAELASPGASVKLSCKASGYTFTTYWIHWVKQRPGQGLEWIGAIYPGDGDTRYTQNFKDKATLTADSSSSTAYMQLSSLASEDSAVFYCAREGTPPFTTATFAMAYWGQGTSVTVSS
heavy (part 2 of 2): STGEVQLLESGGGLVQPGGSLRLSCAASGFTFSNYAMGWVRQAPGKGLEWVSSISSSGFATYYADSVKGRFTISRDNSKNTLYLQMNSLRAEDTAVYYCAKSESRTFKAFDYWGQGTLVTVSS
light: DIVMSQSPSSLAVSAGDKVTMSCKSSQSLLYSRTRKNYLAWYQQKPGQSPKLLIYWASTRQSGVPDRFTGSGSGTDFTLTISSVQAEDLAVYYCKQSYNLFTFGSGTKLEIKR
notes: not shown: human IgG1 CH1-CH2-CH3
B4: DOM28h-20 (other)
chain: DIQMTQSPSSLSASVGDRVTITCRASRSISDELTWYQQKPGKAPKLLISWGSSLQSGVPSRFSGSGSGTDFTLTISSLQPEDFATYYCLQTWELPVTFGQGTKVEIKR
notes: dAb, C-terminal FLAG tag (pDOM10)
B5: DOM28h-110 (other)
chain: EVQLLESGGGLVQPGGSLRLSCAASGFTFRKYAMMWVRQAPGKGLEWVSTITASGGGTYYADSVKGRFTISRDNSKNTLYLQMNSLRAEDTAVYYCAKPLNQYATQFDYWGQGTLVTVSS
notes: as for B4
B6: DOM28h-66 (other)
chain: EVQLLESGGGLVQPGGSLRLSCAASGFTFPLYEMHWVRQAPGKGLEWVSRISPTGATTYYADSVKGRFTISRDNSKNTLYLQMNSLRAEDTAVYYCAKDRRGRAGVTFDYWGQGTLVTVSS
notes: dAb, C-terminal FLAG tag (pDOM10); also called DOM28h-066
B7: DOM28h-73 (other)
chain: EVQLLESGGGLVQPGGSLRLSCAASGFTFDDYWMQWVRQAPGKGLEWVSSISDEGARTYYADSVKGRFTISRDNSKNTLYLQMNSLRAEDTAVYYCAEYPGLAHFGEDFDYWGQGTLVTVSS
notes: as for B4
B8: DOM28h-78 (other)
chain: EVQLLESGGGLVQPGGSLRLSCAASGFTFEHYPMGWVRQAPGKGLEWVSHISYDGTDTYYADSVKGRFTISRDNSKNTLYLQMNSLRAEDTAVYYCAKFHNQWDIYSFDYWGQGTLVTVSS
notes: as for B4
B9: DOM28h-79 (other)
chain: EVQLLESGGGLVQPGGSLRLSCAASGFTFKNYDMSWVRQAPGKGLEWVSGIWDDGWATYYADSVKGRFTISRDNSKNTLYLQMNSLRAEDTAVYYCAKGAATPGQTIFDYWGQGTLVTVSS
notes: as for B4
B10: DOM28h-54 (other)
chain: EVQLLESGGGLVQPGGSLRLSCAASGFTFESYDMSWVRQAPGKGLEWVSGIYPDGGATYYADSVKGRFTISRDNSKNTLYLQMNSLRAEDTAVYYCAKGEPNLFDYWGQGTLVTVSS
notes: as for B4
B11: DOM28h-7 (other)
chain: DIQMTQSPSSLSASVGDRVTITCRASSNIDDDLGWYQQKPGKAPKLLIGWSSDLQSGVPSRFSGSGSGTDFTLTISSLQPEDFATYYCAQWWRGPATFGQGTKVEIKR
notes: as for B4
B12: DOM28h-26 (other)
chain: B11 chain with S27R, D32E, G34A, G49A, S51G, A89G, W91F, W92R, A96L
notes: as for B4
B13: anti-MLC mAb 39-15 purified from the hybridoma (ATCC HB11709) (antibody, mouse IgG1, V domains shown)
VH: B3 heavy (part 1 of 2)
VL: B3 light
notes: mouse IgG1 kappa; also called anti-MLC (Hybridoma)
B14: recombinant anti-MLC mAb (39-15) (antibody, mouse IgG1, V domains shown)
VH: B3 heavy (part 1 of 2)
VL: B3 light
notes: mouse IgG1 heavy and mouse kappa constant regions, expressed in HEK293E
B15: humanised 39-15 mAb 4-1:5-51 (antibody, human IgG1, kappa, V domains shown)
VH: EVQLVQSGAEVKKPGESLKISCKGSGYSFTTYWIHWVRQMPGKGLEWMGAIYPGDGDTRYTQNFKDQVTISADKSISTAYLQWSSLKASDTAMYYCAREGTPPFTTATFAMAYWGQGTLVTVSS
VL: DIVMTQSPDSLAVSLGERATINCKSSQSLLYSRTRKNYLAWYQQKPGQPPKLLIYWASTRQSGVPDRFSGSGSGTDFTLTISSLQAEDVAVYYCKQSYNLFTFGQGTKLEIKR
notes: human IgG1 kappa
B16: humanised 39-15 mAb 1-39:1-3 (antibody, V domains shown)
VH: QVQLVQSGAEVKKPGASVKVSCKASGYTFTTYWIHWVRQAPGQRLEWMGAIYPGDGDTRYTQNFKDRVTITRDTSASTAYMELSSLRSEDMAVYYCAREGTPPFTTATFAMAYWGQGTLVTVSS
VL: DIQMTQSPSSLSASVGDRVTITCKSSQSLLYSRTRKNYLAWYQQKPGKAPKLLIYWASTRQSGVPSRFSGSGSGTDFTLTISSLQPEDFATYYCKQSYNLFTFGQGTKLEIKR
B17: humanised 39-15 mAb 4-1:1-3 (antibody, human IgG1, kappa, V domains shown)
VH: B16 VH
VL: B15 VL
notes: human IgG1 kappa
B18: humanised 39-15 mAb 1-39:1-46 (antibody, V domains shown)
VH: B16 VH with R44G, I70M, A76T, A79V, M91T
VL: B16 VL
B19: humanised 39-15 mAb 4-1:1-8 (antibody, V domains shown)
VH: B16 VH with P41T, R44G, I70M, D73N, A76I, M91T
VL: B15 VL
B20: humanised 39-15 mAb 4-1:1-46 (antibody, human IgG1, V domains shown)
VH: B16 VH with R44G, I70M, A76T, A79V, M91T
VL: B15 VL
notes: human IgG1 kappa

molecular target: Myosin Light Chain (on streptavidin chip; vMLC1-sulfotag); assay: BIAcore, bad fit
Sequence (chain, as listed by the source): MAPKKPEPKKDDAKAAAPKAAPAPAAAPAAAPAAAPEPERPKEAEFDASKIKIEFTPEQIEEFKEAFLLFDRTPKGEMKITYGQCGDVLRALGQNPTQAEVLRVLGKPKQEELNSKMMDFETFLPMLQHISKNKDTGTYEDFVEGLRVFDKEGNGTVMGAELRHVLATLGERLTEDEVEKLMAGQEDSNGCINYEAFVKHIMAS

Kd	Binder
0.048 nM	B1
0.042 nM	B2
0.047 nM	B3

molecular target: T1, human c-kit (recombinant, on BIAcore chip or beads) (human, UniProt P10721 26-524); assay: BIAcore, c-kit on SA chip
T1 construct: extracellular domain; also called hcKIT; biotinylated human c-kit
Protocol: All unique dAb clones were expressed in 50 ml cultures (OnEX plus carbenicillin) overnight at 37° C. and purified on protein A (VH dAbs) or protein L (VK dAbs). Purified dAbs were passed over a SA BIAcore chip coated with either human or mouse c-kit at 1 μM to identify those dAbs that bound specifically to either human or murine c-kit.

T1 sequence (P10721 26-524): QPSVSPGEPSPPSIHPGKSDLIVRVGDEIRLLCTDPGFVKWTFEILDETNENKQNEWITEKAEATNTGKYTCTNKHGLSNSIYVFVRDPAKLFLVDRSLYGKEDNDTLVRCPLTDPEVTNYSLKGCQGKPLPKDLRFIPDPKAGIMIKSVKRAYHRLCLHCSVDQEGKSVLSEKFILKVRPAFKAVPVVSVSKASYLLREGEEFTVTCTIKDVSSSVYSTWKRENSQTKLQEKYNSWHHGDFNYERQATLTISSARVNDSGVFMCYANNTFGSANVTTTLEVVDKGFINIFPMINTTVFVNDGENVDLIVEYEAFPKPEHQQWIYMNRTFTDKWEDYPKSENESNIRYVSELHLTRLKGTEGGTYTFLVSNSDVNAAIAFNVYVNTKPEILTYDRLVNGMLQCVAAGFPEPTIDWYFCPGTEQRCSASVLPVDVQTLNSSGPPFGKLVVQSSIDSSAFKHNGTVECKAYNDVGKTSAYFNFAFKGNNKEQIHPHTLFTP

Kd	Binder
1000 nM	B4
3300 nM	B5
2900 nM	B6
1300 nM	B7
233 nM	B8
218 nM	B9
490 nM	B10
1400 nM	B11
621 nM	B12

molecular target: T2, human ventricular myosin light chain 1, GlySer(His)6 tag (human, UniProt P08590 1-195, limits assumed); assay: BIAcore, vMLC-1 immobilised
T2 construct: also called human vMLC-1; vMLC1-6xHIS
T2 sequence (P08590 other isoform, or with tags, fused parts or gaps limits assumed): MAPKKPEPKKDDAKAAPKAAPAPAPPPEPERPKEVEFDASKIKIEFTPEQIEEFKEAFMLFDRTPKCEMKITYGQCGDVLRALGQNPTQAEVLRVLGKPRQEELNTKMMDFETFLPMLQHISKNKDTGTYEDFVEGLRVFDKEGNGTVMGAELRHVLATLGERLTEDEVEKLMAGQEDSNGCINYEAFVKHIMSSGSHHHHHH

Kd	koff	kon	Binder
0.0003 nM	1.1e-06 s⁻¹	3.5e+06 M⁻¹ s⁻¹	B13
0.0047 nM	1.78e-05 s⁻¹	3.81e+06 M⁻¹ s⁻¹	B14

molecular target: T3, mouse ventricular myosin light chain 1, GlySer(His)6 tag (mouse, UniProt P09542 1-204); assay: BIAcore, vMLC-1 immobilised
T3 construct: also called mouse vMLC-1
T3 sequence (P09542 other isoform, or with tags, fused parts or gaps): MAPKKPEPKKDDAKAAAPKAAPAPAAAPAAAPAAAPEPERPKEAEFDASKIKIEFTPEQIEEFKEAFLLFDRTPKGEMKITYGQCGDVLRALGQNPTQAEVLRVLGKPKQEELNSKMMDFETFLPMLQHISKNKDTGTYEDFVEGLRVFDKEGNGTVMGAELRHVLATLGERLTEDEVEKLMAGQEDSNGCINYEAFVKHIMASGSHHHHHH

Kd	koff	kon	Binder
0.0235 nM	3.07e-05 s⁻¹	1.31e+06 M⁻¹ s⁻¹	B13
0.0222 nM	3.46e-05 s⁻¹	1.56e+06 M⁻¹ s⁻¹	B14

molecular target: T2, human ventricular myosin light chain 1, …; assay: BIAcore, vMLC-1 immobilised; remark: another data set of the same source
Protocol: (§1) Affinity of all 8 humanised mAbs was determined by BIAcore as described above.

Kd	koff	kon	Binder
0.00169 nM	2.65e-06 s⁻¹	1.57e+06 M⁻¹ s⁻¹	B15
–	2.17e-05 s⁻¹	–	B16
0.00825 nM	1.52e-05 s⁻¹	1.84e+06 M⁻¹ s⁻¹	B17
–	3.41e-05 s⁻¹	–	B18
0.0128 nM	1.87e-05 s⁻¹	1.46e+06 M⁻¹ s⁻¹	B19
0.00818 nM	1.63e-05 s⁻¹	1.99e+06 M⁻¹ s⁻¹	B20

molecular target: T3, mouse ventricular myosin light chain 1, …; assay: BIAcore, vMLC-1 immobilised; remark: another data set of the same source
Protocol: as §1

Kd	koff	kon	Binder
0.0153 nM	2.16e-05 s⁻¹	1.42e+06 M⁻¹ s⁻¹	B15
–	8.8e-05 s⁻¹	–	B16
0.0396 nM	6.6e-05 s⁻¹	1.67e+06 M⁻¹ s⁻¹	B17
–	0.000122 s⁻¹	–	B18
0.0589 nM	7.78e-05 s⁻¹	1.32e+06 M⁻¹ s⁻¹	B19
0.0426 nM	7.65e-05 s⁻¹	1.79e+06 M⁻¹ s⁻¹	B20

molecular target: T1, human c-kit (recombinant, on BIAcore …); assay: BIAcore, dAb at 1000 and 500 nM
Protocol: Unique dAbs were expressed as bacterial supernatants in 2.5 L shake flasks in Onex media at 37° C. for 24 hrs at 250 rpm. dAbs were purified from the culture media by absorption to protein A or L agarose followed by elution with 10 mM glycine pH2.0.

Kd	Binder
3300 nM	B5
2900 nM	B6
